The record followed here is patent US20150037868.

Numbering of substitutions follows the chain as printed.

In series [1] the target is T1, TktA variant with HRV protease cleavage motif inserted after amino acid 638.
T1 chain: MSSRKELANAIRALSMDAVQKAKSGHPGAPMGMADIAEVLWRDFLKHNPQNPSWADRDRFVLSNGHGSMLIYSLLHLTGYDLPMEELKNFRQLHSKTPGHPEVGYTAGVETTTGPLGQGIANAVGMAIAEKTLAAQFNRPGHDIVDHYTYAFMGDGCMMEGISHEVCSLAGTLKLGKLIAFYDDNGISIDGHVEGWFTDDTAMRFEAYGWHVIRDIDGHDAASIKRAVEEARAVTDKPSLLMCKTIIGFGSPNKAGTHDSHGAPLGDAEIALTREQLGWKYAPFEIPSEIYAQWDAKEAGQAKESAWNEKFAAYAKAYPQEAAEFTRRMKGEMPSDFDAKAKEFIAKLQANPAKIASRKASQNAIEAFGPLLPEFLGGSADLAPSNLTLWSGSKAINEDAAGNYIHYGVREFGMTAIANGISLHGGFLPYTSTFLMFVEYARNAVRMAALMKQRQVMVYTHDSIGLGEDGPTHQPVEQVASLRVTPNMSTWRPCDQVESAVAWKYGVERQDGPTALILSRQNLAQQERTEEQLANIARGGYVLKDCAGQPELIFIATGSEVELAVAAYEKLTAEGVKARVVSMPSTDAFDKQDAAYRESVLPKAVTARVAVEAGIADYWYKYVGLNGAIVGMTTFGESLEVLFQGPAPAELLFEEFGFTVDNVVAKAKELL

For series [2], the target named is T2, TktA variant with HRV protease cleavage motif inserted after amino acid 635.
T2 chain: T1 chain with G636L, S638V, E640F, V641Q, L642G, F643P, Q644G, G645E, P646S

The target of series [3] is T3, TktA variant with HRV protease cleavage motif inserted after amino acid 640.
T3 chain: T1 chain with L639A, E640P, V641L, L642E, F643V, Q644L, G645F, P646Q, A647G

The target of series [4] is T4, wild-type TktA protein (transketolase A of Escherichia coli).
T4 chain: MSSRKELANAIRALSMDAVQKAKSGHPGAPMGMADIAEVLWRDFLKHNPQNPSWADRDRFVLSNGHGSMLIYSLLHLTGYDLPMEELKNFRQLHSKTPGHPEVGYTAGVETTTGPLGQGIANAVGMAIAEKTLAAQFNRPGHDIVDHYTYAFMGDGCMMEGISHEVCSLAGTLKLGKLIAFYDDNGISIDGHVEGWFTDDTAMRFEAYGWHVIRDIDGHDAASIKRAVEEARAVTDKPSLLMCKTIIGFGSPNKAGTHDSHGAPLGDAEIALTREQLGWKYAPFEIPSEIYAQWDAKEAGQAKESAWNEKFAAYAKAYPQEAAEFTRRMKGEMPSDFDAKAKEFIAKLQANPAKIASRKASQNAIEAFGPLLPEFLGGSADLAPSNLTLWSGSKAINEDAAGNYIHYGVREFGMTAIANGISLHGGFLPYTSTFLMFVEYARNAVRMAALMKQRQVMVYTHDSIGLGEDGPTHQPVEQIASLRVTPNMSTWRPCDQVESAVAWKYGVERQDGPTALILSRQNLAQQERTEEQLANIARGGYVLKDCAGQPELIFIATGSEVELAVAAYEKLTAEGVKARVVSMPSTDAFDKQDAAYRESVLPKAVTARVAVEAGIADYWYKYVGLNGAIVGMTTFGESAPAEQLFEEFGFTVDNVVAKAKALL

For series [5], the target named is T5, TktA variant with HRV protease cleavage motif inserted after amino acid 636.
T5 chain: T1 chain with E637L, S638E, L639V, E640L, V641F, L642Q, F643G, Q644P, G645E, P646S

Series [6] addresses T6, TktA variant with HRV protease cleavage motif inserted after amino acid 637.
T6 chain: T1 chain with S638L, L639E, E640V, V641L, L642F, F643Q, Q644G, G645P, P646S

Series [7] addresses Pgi-HRV-I526 (Pgi with HRV 3C recognition sequence inserted after amino acid 526).

B1: HRV 3C protease (codon-optimized for expression in E. coli), cytoplasmic (protein)
chain: MGPEEEFGMSLIKHNSCVITTENGKFTGLGVYDRFVVVPTHADPGKEIQVDGITTKVIDSYDLYNKNGIKLEITVLKLDRNEKFRDIRRYIPNNEDDYPNCNLALLANQPEPTIINVGDVVSYGNILLSGNQTARMLKYSYPTKSGYCGGVLYKIGQVLGIHVGGNGRDGFSAMLLRSYFTDVQ
Regarding B1, the growth rate in minimal glucose medium, HRV protease +inducer (2% arabinose, pGLC217); -inducer value 0.13 in series [1] stood at 0.08. Besides, in series [2], the growth rate in minimal glucose medium, HRV protease +inducer (2% arabinose, pGLC217); -inducer value 0.58 stood at 0.47. The same protein returned a growth rate in minimal glucose medium, HRV protease +inducer (2% arabinose, pGLC217); -inducer value 0.55 in series [3] of 0.34. The protein also gave a growth rate in minimal glucose medium, HRV protease +inducer (2% arabinose, pGLC217); -inducer value 0.60 in series [4] of 0.57. In series [5], the growth rate in minimal glucose medium, HRV protease +inducer (2% arabinose, pGLC217); -inducer value 0.43 was found to be 0.17. Also, the growth rate in minimal glucose medium, HRV protease +inducer (2% arabinose, pGLC217); -inducer value 0.40 in series [6] was determined as 0.11. This protein returned a Pgi activity in clarified lysate after 2 h IPTG induction of cytoplasmic HRV 3C protease (pGLC221, no OmpA leader); no-protease strain 1.3 (µmol/min/mg total protein) in series [7] of -0.01.

B2: HRV 3C protease with an N-terminal OmpA leader sequence (periplasmic) (protein)
chain: GPEEEFGMSLIKHNSCVITTENGKFTGLGVYDRFVVVPTHADPGKEIQVDGITTKVIDSYDLYNKNGIKLEITVLKLDRNEKFRDIRRYIPNNEDDYPNCNLALLANQPEPTIINVGDVVSYGNILLSGNQTARMLKYSYPTKSGYCGGVLYKIGQVLGIHVGGNGRDGFSAMLLRSYFTDVQ
Regarding B2, the Pgi activity in clarified lysate after 2 h IPTG induction of periplasmically sequestered HRV 3C protease (pGLC089, OmpA leader); no-protease strain 1.3 (µmol/min/mg total protein) in series [7] amounted to 0.01.

B3: tobacco etch virus (TEV) protease (protein)
chain: GESLFKGPRDYNPISSTICHLTNESDGHTTSLYGIGFGPFIITNKHLFRRNNGTLLVQSLHGVFKVKNTTTLQQHLIDGRDMIIIRMPKDFPPFPQKLKFREPQREERICLVTTNFQTKSMSSMVSDTSCTFPSSDGIFWKHWIQTKDGQCGSPLVSTRDGFIVGIHSASNFTNTNNYFTSVPKNFMELLTNQEAQQWVSGWRLNADSVLWGGHKVFMSKPEEPFQPVKEATQLMNELVYSQ
The protein B3 displayed a growth rate in minimal glucose medium, TEV protease control +inducer (2% arabinose, pGLC219); -inducer value 0.18 in series [1] of 0.18. The protein further registered a growth rate in minimal glucose medium, TEV protease control +inducer (2% arabinose, pGLC219); -inducer value 0.52 in series [2] of 0.52. In series [3], this protein had a growth rate in minimal glucose medium, TEV protease control +inducer (2% arabinose, pGLC219); -inducer value 0.48 of 0.52. The same protein yielded a growth rate in minimal glucose medium, TEV protease control +inducer (2% arabinose, pGLC219); -inducer value 0.55 in series [4] of 0.53. In series [5], the growth rate in minimal glucose medium, TEV protease control +inducer (2% arabinose, pGLC219); -inducer value 0.39 turned out to be 0.42. This protein showed a growth rate in minimal glucose medium, TEV protease control +inducer (2% arabinose, pGLC219); -inducer value 0.46 in series [6] of 0.46.
